Assay [1] addresses Trypsin (UniProt P00760).
The target in assay [2] is Trypsin (UniProt P00760). The source holds these as a separate data set.

Chain of UniProt P00760 (P00760 18-246): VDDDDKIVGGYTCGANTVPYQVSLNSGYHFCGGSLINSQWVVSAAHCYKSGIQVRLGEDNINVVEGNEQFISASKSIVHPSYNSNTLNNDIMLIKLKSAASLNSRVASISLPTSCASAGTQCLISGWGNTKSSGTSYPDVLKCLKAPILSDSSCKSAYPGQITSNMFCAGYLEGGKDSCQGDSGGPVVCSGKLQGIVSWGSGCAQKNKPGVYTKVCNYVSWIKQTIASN

As to “trypsin inhibitor isolated from tamarind seeds (natural protein)”, in the assay with Trypsin [1], the antitrypsin activity (%), substrate BApNa 1.25 mM, TTI 0.7 mg/mL after the gastric phase of simulated digestion (TTI remained intact) was 96.6% and the antitrypsin activity (%), substrate BApNa 1.25 mM, TTI intact 0.7 mg/mL, no digestion amounted to 96.3%. Besides, in the assay with Trypsin [2], the antitrypsin activity (%) of the eluate from Trypsin-Sepharose was determined as 97%.

These data come from publication PMC9621272.
